Experimental data taken from patent publication US20230220042A1 (SHANGHAI JIAO TONG UNIVERSITY SCHOOL OF MEDICINE, published 2023).
Changes are numbered by the printed parent chain. Names and notes keep the numbering of the source.

T1: Biotin-FcγRIIB (human, UniProt P31994 43-217, limits assumed, biotin-labelled)
T1 construct: Bought, biotin-labelled; used at 1 µg/ml for staining and sorting; also called human FcγRIIB; CD32b
T1 sequence (looked up): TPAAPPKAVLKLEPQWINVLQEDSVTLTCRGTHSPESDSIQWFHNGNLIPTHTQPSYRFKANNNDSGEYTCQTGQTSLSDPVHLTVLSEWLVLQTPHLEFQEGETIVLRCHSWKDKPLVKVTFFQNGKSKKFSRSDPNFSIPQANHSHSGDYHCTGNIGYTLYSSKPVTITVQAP

B1: human IgG2 anti-mouse CD40 surface displayed antibody, Fc mutant S267E/D270H (antibody, name in EU numbering)
light chain (with the P2A rest): DTVLTQSPALAVSPGERVTISCRASDSVSTLMHWYQQKPGQQPKLLIYLASHLESGVPARFSGSGSGTDFTLTIDPVEADDTATYYCQQSWNDPWTFGGGTKLELKRTVAAPSVFIFPPSDEQLKSGTASVVCLLNNFYPREAKVQWKVDNALQSGNSQESVTEQDSKDSTYSLSSTLTLSKADYEKHKVYACEVTHQGLSSPVTKSFNRGECGSGATNFSLLKQAGDVEENPG
heavy chain: EVQLVESDGGLVQPGRSLKLPCAASGFTFSDYYMAWVRQAPTKGLEWVASISYDGSSTYYRDSVKGRFTISRDNAKSTLYLQMDSLRSEDTATYYCGRHSSYFDYWGQGVMVTVSSASTKGPSVFPLAPCSRSTSESTAALGCLVKDYFPEPVTVSWNSGALTSGVHTFPAVLQSSGLYSLSSVVTVPSSNFGTQTYTCNVDHKPSNTKVDKTVERKCCVECPPCPAPPVAGPSVFLFPPKPKDTLMISRTPEVTCVVVDVEHEHPEVQFNWYVDGVEVHNAKTKPREEQFNSTFRVVSVLTVVHQDWLNGKEYKCKVSNKGLPAPIEKTISKTKGQPREPQVYTLPPSREEMTKNQVSLTCLVKGFYPSDIAVEWESNGQPENNYKTTPPMLDSDGSFFLYSKLTVDKSRWQQGNVFSCSVMHEALHNHYTQKSLSLSPGKLEPPPSTVSNMATVAVLVVLGAAIVTGAVVAFVMKMRRRNTGGKGGDYALAPGSQTSDLSLPDCKVMVHDPHSLA
notes: as m1; positions are Eu numbers; copies: 2 + 2
B2: human IgG2 anti-mouse CD40 surface displayed antibody, Fc mutant S267E/P271V (antibody, name in EU numbering)
light chain (with the P2A rest): B1 light chain (with the P2A rest)
heavy chain: B1 heavy chain with H265D, P266V
notes: as for B1
B3: human IgG2 anti-mouse CD40 surface displayed antibody, Fc mutant L328R (antibody, name in EU numbering)
light chain (with the P2A rest): B1 light chain (with the P2A rest)
heavy chain: B1 heavy chain with E262S, H265D, L323R
notes: as for B1
B4: human IgG2 anti-mouse CD40 surface displayed antibody, Fc mutant P271G/S298N (antibody, name in EU numbering)
light chain (with the P2A rest): B1 light chain (with the P2A rest)
heavy chain: B1 heavy chain with E262S, H265D, P266G, S293N
notes: as for B1
B5: human IgG2 anti-mouse CD40 surface displayed antibody, Fc mutant L328V (antibody, name in EU numbering)
light chain (with the P2A rest): B1 light chain (with the P2A rest)
heavy chain: B1 heavy chain with E262S, H265D, L323V
notes: as for B1
B6: human IgG2 anti-mouse CD40 surface displayed antibody, Fc mutant G327L (antibody, name in EU numbering)
light chain (with the P2A rest): B1 light chain (with the P2A rest)
heavy chain: B1 heavy chain with E262S, H265D, G322L
notes: as for B1
B7: human IgG2 anti-mouse CD40 surface displayed antibody, Fc mutant L328N (antibody, name in EU numbering)
light chain (with the P2A rest): B1 light chain (with the P2A rest)
heavy chain: B1 heavy chain with E262S, H265D, L323N
notes: as for B1
B8: human IgG2 anti-mouse CD40 surface displayed antibody, Fc mutant G327S (antibody, name in EU numbering)
light chain (with the P2A rest): B1 light chain (with the P2A rest)
heavy chain: B1 heavy chain with E262S, H265D, G322S
notes: as for B1

target: T1, Biotin-FcγRIIB; assay: FACS sorting of displayed Fc library on biotin-FcγRIIB, NGS; reference S267E

| Increased factor 2 c Site 1 (combined/point mutation) | Molecule |
| --- | --- |
| 2.6 | B1 |
| 1.4 | B2 |

target: T1, Biotin-FcγRIIB; assay: magnetic sorting on biotin-FcγRIIB with unlabelled activating FcγRs, NGS; LibraryMix #3
Description: (§1) 3T3 cells were collected by trypsin digestion, and a single cell suspension was prepared. […] The cells were incubated for 15 minutes on ice and then washed twice with MACS buffer and re-suspended in 100 μl MACS buffer. Twenty-five μl anti-Biotin magnetic beads were added, and the cells were incubated for 15 minutes on ice and then washed once with MACS buffer and re-suspended to 500 μl, and added to the LS column put in the magnetic field. The effluent was collected, washed with 3 mL of MACS buffer and collected; The LS column was then removed out of the magnetic field, and 5 mL of MACS buffer was used to rapidly elute the remaining cells from the sorting column to collect positive cells, which are the high I/A ratio cells.

| Enrichment factor (percentage after sorting/percentage before sorting) | Increased factor (mutation enrichment factor/wild-type enrichment factor) | Percentage after sorting/unbinding percentage | Percentage before sorting/unbinding percentage | Molecule |
| --- | --- | --- | --- | --- |
| 5.3 | 4.69 | 30.8 | 5.82 | B3 |
| 2.31 | 2.04 | 11.9 | 5.17 | B4 |
| 2.31 | 2.04 | 25.4 | 11 | B5 |

target: T1, Biotin-FcγRIIB; assay: magnetic sorting on biotin-FcγRIIB with unlabelled activating FcγRs, NGS; Library4
Description: as §1
The high-FcγRIIB-affinity cells obtained from the above flow cytometry sorting are further sorted by magnetic-activated sorting. The cells are incubated with the mixture of Biotin-labeled FcγRIIB and non-labeled activating FcγRs, and then the labeled cells are sorted by anti-Biotin magnetic beads. The enrichment ratios after sorting relative to before sorting are analyzed by NGS.

| Enrichment factor (percentage after sorting/percentage before sorting) | Increased factor (mutation enrichment factor/wild-type enrichment factor) | Percentage after sorting/unbinding percentage | Percentage before sorting/unbinding percentage | Molecule |
| --- | --- | --- | --- | --- |
| 3.77 | 4.28 | 3.8 | 1.01 | B6 |
| 2.73 | 3.11 | 50.9 | 18.6 | B7 |
| 6.9 | 7.84 | 71.2 | 10.3 | B8 |

target: T1, Biotin-FcγRIIB; assay: FACS sorting of displayed Fc library on biotin-FcγRIIB, NGS; reference P271G

| Increased factor 2 c Site 1 (combined/point mutation) | Molecule |
| --- | --- |
| 5.1 | B4 |

target: T1, Biotin-FcγRIIB; assay: FACS sorting of displayed Fc library on biotin-FcγRIIB, NGS

| Enrichment factor (after/before sorting) | Increased factor a (enrichment factor/wild-type enrichment factor) | Molecule |
| --- | --- | --- |
| 42.7 | 74.3 | B1 |
| 22.1 | 38.4 | B2 |
| 18 | 24 | B4 |

target: Biotin-FcγRIIB (human) (UniProt P31994); assay: as above

| Increased factor b Site 2 (point mutation/wild-type) | Molecule |
| --- | --- |
| 0.8 | human IgG2 anti-mouse CD40 surface displayed antibody, Fc mutant S298R |
| 1.6 | human IgG2 anti-mouse CD40 surface displayed antibody, Fc mutant I332T |
| 1.2 | human IgG2 anti-mouse CD40 surface displayed antibody, Fc mutant S298G |
| 1.2 | human IgG2 anti-mouse CD40 surface displayed antibody, Fc mutant P329S |
| 0.6 | human IgG2 anti-mouse CD40 surface displayed antibody, Fc mutant T299S |
| 0.4 | human IgG2 anti-mouse CD40 surface displayed antibody, Fc mutant P271W |
| 0.5 | human IgG2 anti-mouse CD40 surface displayed antibody, Fc mutant T299W |
| 0.5 | human IgG2 anti-mouse CD40 surface displayed antibody, Fc mutant G236V |
| 0.4 | human IgG2 anti-mouse CD40 surface displayed antibody, Fc mutant T299A |
| 1.3 | human IgG2 anti-mouse CD40 surface displayed antibody, Fc mutant D270H |
| 1.6 | human IgG2 anti-mouse CD40 surface displayed antibody, Fc mutant S298D |
| 1.1 | human IgG2 anti-mouse CD40 surface displayed antibody, Fc mutant I332E |

target: Biotin-FcγRIIB (human) (UniProt P31994); assay: NGS of 3T3 display library C2 flow-sorted for FcγRIIB binding

| enrichment factor, percentage after 3rd sorting/percentage after 2nd sorting | percentage after 2nd sorting [%] | percentage after 3rd sorting [%] | Molecule |
| --- | --- | --- | --- |
| 15.4 | 0 | 0.04 | human IgG2 anti-mouse CD40 surface displayed antibody, V234Q/V266L/S267D/H268D/E269D/P271Q |
